Data on one molecule can be found in patent US20250188194A1, “Method of treatment” (Nucleus Therapeutics Pty Ltd, priority 2021, published 2025).

“And” between values parts separate entries of the source, which are not always exact repeats. Equal entries are not always repeated. “Also recorded” adds a separate entry of the source.

The test system of test [1] is differentiated PLB-985 cells. Nature of the test: H3Cit western blot. In kind it is cell-based, human. Conditions: 10 μM DX1 one hour, then PMA; PMA control 0.64±0.06; N=3. As for the experimental part: FIGS. 5A-5B. […] Differentiated PLB-985 cells were pre-treated with control media or media containing 10 μM DX1 for one hour, followed by stimulation with PMA. Cellular contents were isolated and analyzed by H3Cit western blot. Representative cropped blot is shown in (5A), and quantification of H3Cit band intensity normalized to actin in (5B). […]
Histone citrullination by PAD4 is a key step in NETosis that is targeted by the selective PAD4 inhibitor GSK484. Differentiated PLB-985 cells treated with control or 10 μM DX1 for one hour were stimulated by PMA, and cell contents were isolated and analyzed for H3Cit content by western blot with normalization to actin. […]
Differentiated PLB-985 cells at 8×10^5 cells/well in 12-well plates were incubated with control buffer or buffer containing 10 μM DX1 for one hour and then stimulated by addition of 300 nM PMA for two hours. Cells were isolated by centrifugation, lysed in RIPA buffer, and H3Cit content determined by western blot using anti-H3Cit primary (#AB5103, abcam, Cambridge, MA, USA) and goat anti-rabbit HRP-conjugated secondary antibody at 1:5000 (#AB205718, abcam). H3Cit band intensities normalized to actin loading control were determined by ImageJ (NIH, Bethesda, MD).

Test [2] deals with differentiated PLB-985 cells. Nature of the test: Visualization of chromatin decondensation by DAPI stain after PMA stimulation. In kind it is cell-based, human. Conditions: one hour pre-treatment with 10 μM DX1, 300 nM PMA two hours; control cells 67.5%; N=2. How it is done: FIGS. 2A-2D. DAPI and SYTOX™ Green stains support the conclusion that DX1inhibits chromatin decondensation and DNA release by differentiated PLB-985 cells stimulated with PMA. (2A) Chromatin decondensation in differentiated PLB-985 cells after stimulation with PMA±a one hour pre-treatment with 10 μM DX1 was visualized by DAPI stain. Left panel: Control cells with decondensed DAPI stain after PMA stimulation. Right panel: DX1-treated cells retaining condensed DAPI signal after PMA stimulation. Bar: 25 μm. (2B) Quantification of the percentage of differentiated PLB-985 cells with decondensed DAPI stain after PMA stimulation. […] (2C) DNA release by differentiated PLB-985 cells after stimulation with PMA±a one hour pre-treatment with 10 μM DX1 was visualized by addition of the impermeant DNA stain SYTOX™ Green. Representative images are shown. Bar: 25 μm. (2D) SYTOX™ Green signal in wells containing differentiated PLB-985 cells stimulated with PMA±a one hour pre-treatment with 10 […] was quantified by plate reader. […]
Differentiated PLB-985 cells were plated on Shi-fix coverslips in 12-well plates at 5×10^4 cells/well. […] Cells were fixed with ethanol followed by addition of DAPI and visualization of chromatin decondensation by fluorescence microscopy (EVOS FL, Thermo Fisher Scientific).

A further test concerns MPO immunized mice. The test is described as follows: Mouse model of ANCA associated vasculitis. In kind it is in vivo. Conditions: one or two doses of DX1 at 25 mg/kg, assessed day 20, versus MPO immunized control. As for the experimental part:
FIG. 9. Graphic depiction of an experiment testing the impact of DX1 in a 20-day mouse model of ANCA vasculitis.
FIGS. 10A-10D. […] Mice were treated as depicted in FIG. 9. Glomerular segmental necrosis, macrophages, neutrophils, and CD4+ T-cells was evaluated in control and MPO-immunized mice that subsequently were treated with or without one or two doses of DX1.
Mice receiving two doses of DX1 received their second dose at day 18. Mice were culled for assessment at day 20.
Mice were separated into 4 groups: Ova control (n=4); MPO immunized no treatment with DX1 (n=8); MPO immunized and 1 dose of DX1 at 25 mg/kg (n=8) and; MPO immunized and 2 doses of DX1 at 25 mg/kg.

B1: DX1: 3E10 derivative, a di-scFv having the sequence SEQ ID NO: 38; nuclear-penetrating anti-DNA binding protein (protein)
scFv: DIQMTQSPSSLSASLGDRATITCRASKTVSTSSYSYMHWYQQKPGQPPKLLIKYASYLESGVPSRFSGSGSGTDFTLTISSLQPEDAATYYCQHSREFPWTFGGGTKVEIKTVDAAPGGGGSGGGGSGGGGSEVQLVESGGGLVQPGGSLRLSCAASGFTFSNYGMHWVRQAPGKGLEWVSYISSGSSTIYYADSVKGRFTISRDNAKNSLYLQMNSLRAEDTAVYYCARRGLLLDYWGQGTTVTVSSASTKGPSVFPLAPLESTGSDIQMTQSPSSLSASLGDRATITCRASKTVSTSSYSYMHWYQQKPGQPPKLLIKYASYLESGVPSRFSGSGSGTDFTLTISSLQPEDAATYYCQHSREFPWTFGGGTKVEIKTVDAAPGGGGSGGGGSGGGGSEVQLVESGGGLVQPGGSLRLSCAASGFTFSNYGMHWVRQAPGKGLEWVSYISSGSSTIYYADSVKGRFTISRDNAKNSLYLQMNSLRAEDTAVYYCARRGLLLDYWGQGTTVTVSS
modifications: DX1 sequence
Take B1: the “intracellular H3Cit content normalized to actin, relative to unstimulated cells” value in test [1] is 1.46±0.20. Besides, in test [2], the “percentage of cells with decondensed DAPI stain after PMA stimulation” value was 37.8±2.7% and 37.8±3.8%. Besides, the “glomerular segmental necrosis, macrophages, neutrophils and CD4+ T-cells (glomerular inflammation and pathology)” value in the test with MPO immunized mice is “significantly reduced glomerular inflammation and pathology; also recorded: significantly reduced amounts of all of the signs of glomerular inflammation”.
